Values joined by “and” are separate entries in the source; they are usually repeats but may differ in a detail not shown here. Equal values may be shown once.
Assays:
[1] = target: TeSasA, T. elongatus SasA (wild type, full-length) (Thermosynechococcus elongatus); experiment: native MS; TeSasA or TeSasAN alone; 150 mM ammonium acetate, pH 6.8
[2] = target: TeKaiCDD, T. elongatus KaiC mutant with Ser431 and Thr432 substituted by aspartate residues (Thermosynechococcus elongatus) (UniProt Q79V60); experiment: native MS; TeKaiCDD (20 µM) titrated with KaiB or SasA proteins, incubated at 37 °C for 6 h, buffer-exchanged into 150 mM ammonium acetate, pH 6.8; nanoflow ESI
Chain of TeKaiCDD, T. elongatus KaiC mutant with Ser431 and Thr432 substituted by aspartate residues (Thermosynechococcus elongatus) (Q79V60 other isoform, or with tags, fused parts or gaps mutant): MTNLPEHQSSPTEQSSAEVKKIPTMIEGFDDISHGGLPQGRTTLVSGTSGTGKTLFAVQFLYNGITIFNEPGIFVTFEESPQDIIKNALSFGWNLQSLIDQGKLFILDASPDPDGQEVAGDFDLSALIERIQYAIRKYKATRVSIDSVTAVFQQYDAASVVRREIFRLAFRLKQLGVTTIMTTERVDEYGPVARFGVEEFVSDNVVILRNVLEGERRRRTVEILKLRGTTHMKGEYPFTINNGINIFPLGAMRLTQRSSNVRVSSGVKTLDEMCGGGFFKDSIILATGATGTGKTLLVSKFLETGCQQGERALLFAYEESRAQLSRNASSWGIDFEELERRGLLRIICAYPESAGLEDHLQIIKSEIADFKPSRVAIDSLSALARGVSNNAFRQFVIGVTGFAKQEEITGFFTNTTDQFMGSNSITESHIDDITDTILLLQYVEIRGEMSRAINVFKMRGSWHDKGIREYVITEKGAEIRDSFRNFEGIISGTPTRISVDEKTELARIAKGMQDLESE

stoichiometry N [1]	stoichiometry N (binder chains per KaiC hexamer) [2]	Substance
2	2 and 4 and 6	TeSasA, T. elongatus SasA (wild type, full-length) (natural protein)
–	2 and 3 and 4	TeSasAN, the N-terminal domain of T. elongatus SasA (domain or fragment)

From article PMC6769508
